Source: article PMC314469, “Protein Interaction Networks by Proteome Peptide Scanning” (PLoS Biology, 2004)

T1: amphyphisin SH3 (AMPH_HUMAN), P49418
T1 chain: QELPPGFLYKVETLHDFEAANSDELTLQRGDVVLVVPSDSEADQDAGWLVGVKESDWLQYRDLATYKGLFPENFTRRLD


Tests used:
[1] = target: endophilin SH3 (SH3G2_HUMAN), Q99962; experiment: SPOT array
[2] = target: T1, amphyphisin SH3 (AMPH_HUMAN), P49418; experiment: SPOT array

| Binder | normalised SPOT signal, Boehringer light units (BLU); mean over the file's lines of this peptide [1] | normalised SPOT signal, Boehringer light units (BLU); mean over the file's lines of this peptide [2] |
| --- | --- | --- |
| PRAPLHRPQKPREG [Q9P1Y6 1426-1439] | 194 | 98.2 |
| PREFPFKPPSIYMI [Q96T84 67-81] | 519 | 32.3 |
| PPYGPSRPDKKQRM [Q9HA17 357-370] | 394 | 193 |
| PPTRPSRPWRDLPE [Q9UIG4 65-78] | 14300 | 4300 |
| PQTELRRPGQLIDE [Q9H1Y1 836-849] | 44.1 | 27.5 |
| PRPTPRRPRPRLAR [Q9GZW5 261-274] | 1950 | 928 |
| ASLFPKRPALEPVR [Q9Y2X7 686-699] | 926 | 41.1 |
| PRLRPMRPPPPPPA [Q9NXX8 675-689] | 4660 | 1860 |
| PPVRPARPPGPLVT [Q8WYX3 74-88] | 6550 | 7480 |
| PREGPGRPPLDGRD [Q9H8B2 127-141] | 58.8 | 47.3 |
| PRPGPSRPPPVPAP [Q9Y2G0 18-32] | 1900 | 137 |
| PPWVPWRPPSSAAV [Q9UN47 31-45] | 835 | 829 |
| PRANPRRPPRAIVP [Q8WYW1 101-114] | 94.1 | 373 |
| PRKYPNRPSKTPLH [Q06889 258-271] | 51.5 | 79.9 |
| PRAVPARPPTRPRF [Q8TE87 150-164] | 17600 | 6470 |
| PPVVPRRPPAHISS [Q9NTY8 3-17] | 17800 | 6110 |
| PRPRPRRPRQLTRA [Q9HAM8 17-30] | 206 | 72.2 |
| PRGVLPRPSRVLVL [Q9NYA1 7-20] | 508 | 1850 |
| PQGPPRRPPPHILD [Q9P2A8 24-38] | 4220 | 131 |
| PPSGPLRPPATISP [Q9H4B5 83-97] | 127 | 105 |

The next lines start with the values.

| normalised SPOT signal, Boehringer light units (BLU); mean over the file's lines of this peptide [1] | normalised SPOT signal, Boehringer light units (BLU); mean over the file's lines of this peptide [2] | Binder |
| --- | --- | --- |
| 5360 | 848 | ASHPPPRPPKHPSV [BAC05194 549-563] |
| 51 | 38.1 | ASNQPKRPPAAPEN [P48634 118-131] |
| 1540 | 225 | PRPPPGKPPTRPGV [O94932 475-489] |
| 37.8 | 39.9 | PQSSLRRPDPGRLP [O95613 3094-3107] |
| 97 | 2800 | PQPGFRRPARPETQ [Q16624 63-76] |
| 7560 | 2770 | PRPLPPRPPAAQPR [P58840 142-156] |
| 20300 | 14900 | PPSRPSRPPSHPSA [Q99700 586-600] |
| 5200 | 321 | PQQFPSRPPPPQPK [Q13443 782-796] |
| 146 | 49 | ASGHIKRPMNAFMV [P35716 45-58] |
| 2340 | 640 | PRKLPSRPPPHYPG [O75923 185-199] |
| 1100 | 32.1 | PREPPRRPAFLPVG [Q13387 310-323] |
| 3120 | 1540 | PRPLPPRPPAAQPP [P10323 331-345] |
| 41100 | 8950 | PPTPPPRPQKTHSR [O43428 338-351] |
| 57.5 | 109 | PRKYPNRPSKTPVH [P11161 323-336] |
| 2730 | 71.5 | PPSAPRRPPVYYKF [O95696 129-142] |
| 221 | 1550 | PRAWPRRPRRDYSI [O43385 549-562] |
| 3390 | 513 | PQPPPPKPPRPQPP [P35556 29-43] |
| 221 | 46.8 | PRKAPRRPGPGMSG [Q92611 83-96] |
| 265 | 101 | PRPSPARPKKSEES [O94836 564-577] |
| 4.5 | 20.2 | PQEHPKRPVLGLES [O95862 118-131] |
| 2520 | 56.3 | PPWGPFRPPYSIFQ [BAC05210 58-72] |
| 508 | 79.9 | PQPPPRRPWASRVL [O94850 45-58] |
